According to patent publication US20240018502A1:

Target: plasma purified human complement protein C3 (human) (UniProt P01024)
Test: cell-based or functional assay

plasma purified human complement protein C3 (human), sequence (P01024 23-667, chain 1 of 2): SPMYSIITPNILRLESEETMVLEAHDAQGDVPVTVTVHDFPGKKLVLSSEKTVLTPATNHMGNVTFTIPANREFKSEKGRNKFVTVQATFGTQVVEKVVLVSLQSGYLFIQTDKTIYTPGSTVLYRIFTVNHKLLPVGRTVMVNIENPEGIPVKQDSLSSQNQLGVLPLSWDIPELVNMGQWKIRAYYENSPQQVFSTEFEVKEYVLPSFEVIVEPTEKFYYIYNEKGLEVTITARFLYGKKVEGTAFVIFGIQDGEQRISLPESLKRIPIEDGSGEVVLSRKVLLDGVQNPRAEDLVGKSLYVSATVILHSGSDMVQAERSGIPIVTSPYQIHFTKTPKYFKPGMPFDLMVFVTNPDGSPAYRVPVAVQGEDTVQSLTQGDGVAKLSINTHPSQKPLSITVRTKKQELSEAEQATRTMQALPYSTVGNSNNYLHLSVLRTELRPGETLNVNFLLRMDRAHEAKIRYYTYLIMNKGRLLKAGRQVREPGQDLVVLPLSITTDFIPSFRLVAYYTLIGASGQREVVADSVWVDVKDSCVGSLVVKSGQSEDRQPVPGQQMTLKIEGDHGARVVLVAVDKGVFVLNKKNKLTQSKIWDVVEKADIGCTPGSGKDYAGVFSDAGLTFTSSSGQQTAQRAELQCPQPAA
plasma purified human complement protein C3 (human), sequence (P01024 672-1663, chain 2 of 2): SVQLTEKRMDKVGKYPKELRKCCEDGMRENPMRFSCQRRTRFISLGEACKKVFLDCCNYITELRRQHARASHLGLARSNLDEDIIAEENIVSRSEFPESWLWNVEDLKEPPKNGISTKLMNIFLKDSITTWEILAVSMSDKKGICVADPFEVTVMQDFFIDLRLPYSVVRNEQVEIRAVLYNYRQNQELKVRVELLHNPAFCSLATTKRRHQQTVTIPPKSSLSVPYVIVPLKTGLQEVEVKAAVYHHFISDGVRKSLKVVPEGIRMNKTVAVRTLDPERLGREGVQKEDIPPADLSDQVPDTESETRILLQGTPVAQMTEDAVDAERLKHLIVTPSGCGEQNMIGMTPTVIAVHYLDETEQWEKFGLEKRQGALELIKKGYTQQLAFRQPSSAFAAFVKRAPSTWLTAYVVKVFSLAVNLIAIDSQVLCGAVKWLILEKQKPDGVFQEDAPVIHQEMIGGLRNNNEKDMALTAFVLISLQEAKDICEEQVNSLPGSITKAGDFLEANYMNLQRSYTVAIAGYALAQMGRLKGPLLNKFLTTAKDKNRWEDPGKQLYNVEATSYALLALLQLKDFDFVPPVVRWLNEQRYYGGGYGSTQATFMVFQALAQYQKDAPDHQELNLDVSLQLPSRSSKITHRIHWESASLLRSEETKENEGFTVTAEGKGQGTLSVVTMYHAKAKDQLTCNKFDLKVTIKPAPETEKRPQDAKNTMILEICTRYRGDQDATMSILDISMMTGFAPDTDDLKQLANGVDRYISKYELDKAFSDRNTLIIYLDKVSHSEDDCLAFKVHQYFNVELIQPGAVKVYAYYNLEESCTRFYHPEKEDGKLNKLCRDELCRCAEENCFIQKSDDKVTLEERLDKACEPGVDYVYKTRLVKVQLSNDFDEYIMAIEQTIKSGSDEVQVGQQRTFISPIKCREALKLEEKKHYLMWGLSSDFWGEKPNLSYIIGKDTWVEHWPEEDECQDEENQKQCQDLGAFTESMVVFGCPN

Binder | EC50 hC3 cleavage
MTSP-1 protease domain I41S/F99M/C122S/G151N/Q175L/Q192G (enzyme) VVGGTDADEGEWPWQVSLHALGQGHSCGASLISPNWLVSAAHCYIDDRGFRYSDPTQWTAFLGLHDQSQRSAPGVQERRLKRIISHPFFNDFTMDYDIALLELEKPAEYSSMVRPISLPDASHVFPAGKAIWVTGWGHTQYGGTNALILQKGEIRVINQTTCENLLPQLITPRMMCVGFLSGGVDSCGGDSGGPLSSVEADGRIFQAGVVSWGDGCAQRNKPGVYTRLPLFRDWIKENTGV | 62 nM
MTSP-1 protease domain I41E/F99L/C122S/G151N/Q175L/Q192A (enzyme) VVGGTDADEGEWPWQVSLHALGQGHECGASLISPNWLVSAAHCYIDDRGFRYSDPTQWTAFLGLHDQSQRSAPGVQERRLKRIISHPFFNDFTLDYDIALLELEKPAEYSSMVRPISLPDASHVFPAGKAIWVTGWGHTQYGGTNALILQKGEIRVINQTTCENLLPQLITPRMMCVGFLSGGVDSCAGDSGGPLSSVEADGRIFQAGVVSWGDGCAQRNKPGVYTRLPLFRDWIKENTGV | 28.5 nM
MTSP-1 protease domain I41S/F99L/C122S/G151H/Q175L/Q192V (enzyme) VVGGTDADEGEWPWQVSLHALGQGHSCGASLISPNWLVSAAHCYIDDRGFRYSDPTQWTAFLGLHDQSQRSAPGVQERRLKRIISHPFFNDFTLDYDIALLELEKPAEYSSMVRPISLPDASHVFPAGKAIWVTGWGHTQYGGTHALILQKGEIRVINQTTCENLLPQLITPRMMCVGFLSGGVDSCVGDSGGPLSSVEADGRIFQAGVVSWGDGCAQRNKPGVYTRLPLFRDWIKENTGV | 20.9 nM
MTSP-1 protease domain I41G/F99L/C122S/G151N/Q192A (enzyme) VVGGTDADEGEWPWQVSLHALGQGHGCGASLISPNWLVSAAHCYIDDRGFRYSDPTQWTAFLGLHDQSQRSAPGVQERRLKRIISHPFFNDFTLDYDIALLELEKPAEYSSMVRPISLPDASHVFPAGKAIWVTGWGHTQYGGTNALILQKGEIRVINQTTCENLLPQQITPRMMCVGFLSGGVDSCAGDSGGPLSSVEADGRIFQAGVVSWGDGCAQRNKPGVYTRLPLFRDWIKENTGV | 61 nM
MTSP-1 protease domain I41S/F99M/C122S/G151N/Q175G/Q192R (enzyme) VVGGTDADEGEWPWQVSLHALGQGHSCGASLISPNWLVSAAHCYIDDRGFRYSDPTQWTAFLGLHDQSQRSAPGVQERRLKRIISHPFFNDFTMDYDIALLELEKPAEYSSMVRPISLPDASHVFPAGKAIWVTGWGHTQYGGTNALILQKGEIRVINQTTCENLLPQGITPRMMCVGFLSGGVDSCRGDSGGPLSSVEADGRIFQAGVVSWGDGCAQRNKPGVYTRLPLFRDWIKENTGV | 95.3 nM
MTSP-1 protease domain I41E/F99L/C122S/G151N/Q175R/Q192H (enzyme) VVGGTDADEGEWPWQVSLHALGQGHECGASLISPNWLVSAAHCYIDDRGFRYSDPTQWTAFLGLHDQSQRSAPGVQERRLKRIISHPFFNDFTLDYDIALLELEKPAEYSSMVRPISLPDASHVFPAGKAIWVTGWGHTQYGGTNALILQKGEIRVINQTTCENLLPQRITPRMMCVGFLSGGVDSCHGDSGGPLSSVEADGRIFQAGVVSWGDGCAQRNKPGVYTRLPLFRDWIKENTGV | 102 nM
MTSP-1 protease domain I41S/F99M/C122S/G151N/Q175E/Q192R (enzyme) VVGGTDADEGEWPWQVSLHALGQGHSCGASLISPNWLVSAAHCYIDDRGFRYSDPTQWTAFLGLHDQSQRSAPGVQERRLKRIISHPFFNDFTMDYDIALLELEKPAEYSSMVRPISLPDASHVFPAGKAIWVTGWGHTQYGGTNALILQKGEIRVINQTTCENLLPQEITPRMMCVGFLSGGVDSCRGDSGGPLSSVEADGRIFQAGVVSWGDGCAQRNKPGVYTRLPLFRDWIKENTGV | 297 nM
MTSP-1 protease domain I41E/F99L/C122S/G151N/Q192V (enzyme) VVGGTDADEGEWPWQVSLHALGQGHECGASLISPNWLVSAAHCYIDDRGFRYSDPTQWTAFLGLHDQSQRSAPGVQERRLKRIISHPFFNDFTLDYDIALLELEKPAEYSSMVRPISLPDASHVFPAGKAIWVTGWGHTQYGGTNALILQKGEIRVINQTTCENLLPQQITPRMMCVGFLSGGVDSCVGDSGGPLSSVEADGRIFQAGVVSWGDGCAQRNKPGVYTRLPLFRDWIKENTGV | 156 nM
